Earlier results in publication PMC4440831 (Chembiochem : a European journal of chemical biology, 2015).

Target: CXCR4 receptor (Homo sapiens, UniProt P61073)
Details: earlier work of the same group

CXCR4 receptor, sequence (P61073 whole entry): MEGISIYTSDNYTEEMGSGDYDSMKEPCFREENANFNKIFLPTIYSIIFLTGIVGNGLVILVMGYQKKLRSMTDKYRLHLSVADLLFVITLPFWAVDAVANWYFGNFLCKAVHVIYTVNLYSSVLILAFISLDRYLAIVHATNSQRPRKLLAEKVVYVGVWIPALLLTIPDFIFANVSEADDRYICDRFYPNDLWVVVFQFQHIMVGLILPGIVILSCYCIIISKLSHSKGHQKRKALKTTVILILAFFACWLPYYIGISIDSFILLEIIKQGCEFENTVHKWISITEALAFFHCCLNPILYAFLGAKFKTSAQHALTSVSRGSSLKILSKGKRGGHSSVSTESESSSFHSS

MCoTI-I: empty scaffold cyclotide (SGSDGGVCPKILQRCRRDSDCPGACICRGNGYCG; not fully specified; Trypsin inhibitor 1; UniProt P82408 1-34, looked up)
CXCR4 inhibitory activity, result in words: no inhibitory activity
